Test results as given in patent US7105488B1, “G protein-coupled receptor antagonists” (priority 1998, dated 2006).
Where a SMILES comes first, the peptide text is derived from it. Where no end group is shown, it is not given here. rhodamine = not defined here; Rhod = not defined here

How the values were obtained:
[1] = biological target: CXCR4 receptor (Homo sapiens, UniProt P61073); assay: Inhibition of SDF-1α-induced intracellular calcium release (Fura-2/AM) in HeLa and U87 cells; assay type: cell-based; conditions: for Decrease in antagonist potency relative to F-2-2: structure-activity of TM2 peptides
Sequence of CXCR4 receptor (Homo sapiens, UniProt P61073) (P61073 whole entry): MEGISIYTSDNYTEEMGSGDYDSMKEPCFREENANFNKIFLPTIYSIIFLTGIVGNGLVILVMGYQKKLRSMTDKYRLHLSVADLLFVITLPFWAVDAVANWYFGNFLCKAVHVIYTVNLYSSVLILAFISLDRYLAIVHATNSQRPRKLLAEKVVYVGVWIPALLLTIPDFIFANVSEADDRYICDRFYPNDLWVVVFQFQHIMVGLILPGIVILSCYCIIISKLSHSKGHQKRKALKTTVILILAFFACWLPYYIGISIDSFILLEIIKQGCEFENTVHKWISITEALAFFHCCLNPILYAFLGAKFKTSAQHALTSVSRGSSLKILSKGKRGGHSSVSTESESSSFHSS
Method: The effect of the peptides on CXCR4-mediated calcium fluxes in HeLa cells that naturally express the CXCR4 receptor and U87 cells stably expressing the CXCR4 receptor was tested as follows. Cells grown on Nunc cover glass chamber slides were incubated with 1 micromolar Fura-2/AM for 20 min in a CO2-incubator, rinsed with PBS and mounted on the stage of a Zeiss Axiovert inverted microscope. [Ca^2+]i measurements were performed using an Attofluor digital imaging system (Atto Instruments, Rockville, Md.). Fluorescence of Fura was excited at alternating wavelength of 340 and 380 nm. […] Calibrations of [Ca^2+]i signals were performed using Ca^2+ standards containing 1 micromolar Fura. CXCR4 antagonists were tested on HeLa cells and U87 cells. Stromal cell-derived factor-1α (SDF-1α) was used as a specific CXCR4 agonist. CCR5 antagonists, which were used in selectivity studies as described below, were tested on HEK (human kidney […]) cells stably expressing the CCR5 receptor and RANTES was used as an agonist. The antagonist activity of the peptides was evaluated by measuring the inhibition of agonist-evoked intracellular Ca^2+i release. These measurements were carried out in Fura-2/AM-treated cells, utilizing an Attofluor digital imaging system as described above. The agonist was SDF-1 α.

[2] = biological target: T1, CXCR4 receptor (UniProt P61073 1-352, limits assumed); assay: cell-based or functional assay
T1 sequence (P61073 whole entry): as above

[3] = biological target: T1, CXCR4 receptor; assay: cell-based or functional assay; remark: listed apart in the source
[4] = biological target: T1, CXCR4 receptor; assay: cell-based or functional assay; remark: listed apart in the source

Molecule: CC[C@H](C)[C@H](NC(=O)CNC(=O)[C@@H](NC(=O)[C@H](Cc1ccc(O)cc1)NC(=O)[C@H](Cc1ccc(O)cc1)NC(=O)[C@@H]1CCCN1C(=O)[C@H](CC(C)C)NC(=O)[C@H](Cc1c[nH]c2ccccc12)NC(=O)[C@H](CS)NC(=O)[C@H](C)NC(=O)[C@H](Cc1ccccc1)NC(=O)[C@H](Cc1ccccc1)NC(=O)[C@H](C)NC(=O)[C@H](CC(C)C)NC(=O)[C@@H](NC(=O)[C@H](CC(C)C)NC(=O)[C@@H](NC(=O)[C@@H](N)C(C)C)[C@@H](C)CC)[C@@H](C)CC)[C@@H](C)CC)C(=O)N[C@@H](CO)C(=O)N[C@H](C(=O)N[C@@H](CC(=O)O)C(=O)O)[C@@H](C)CC [Peptide F-6-1] (H-VILILAFFACWLPYYIGISID-OH; N-terminus and C-terminus assumed)
- Concentration, required for inhibition of signal transduction ([1]; SDF-1α-induced intracellular calcium release, Table 2): 10 µM

Molecule: AcLLFVITLPFWAVDAVANWYFGNDDK(Rhod)D (Ac-LLFVITLPFWAVDAVANWYFGNDDK(rhodamine)D; reading uncertain) [Rhod - AcF-2-2]
- Concentration, required for complete inhibition of [Ca^2+I] release ([1]; TM2-derived peptides, Table 3): 8 µM

Molecule: DDIFLPTIYSIIFLTGIV-HN2 (DDIFLPTIYSIIFLTGIV-NH2) [Peptide F-1-5]
- Concentration, required for complete inhibition of [Ca^2+I] release ([1]; SDF-1α-induced, Table 1): >30 µM

Molecule: KAVHVIYTVNLYSSVLILAFISL-NH2 [Peptide F-3-1]
- Concentration, required for complete inhibition of [Ca^2+I] release ([1]; SDF-1α-induced, Table 1): >50 µM

Molecule: KVYVGVWIPALLLTLPDFIF (KVYVGVWIPALLLTIPDFIF; F-4-1 GPCR CXCR4) [Peptide F-4-1]
- Antagonist activity on CXCR4 signaling, in words [1]: abolished the antagonist activity
- Concentration, required for complete inhibition of [Ca^2+I] release ([1]; SDF-1α-induced, Table 1): >50 µM

Molecule: LLFVITLPFWAVDAVANDD (F-2-5 GPCR CXCR4) [Peptide F-2-5]
- Concentration, required for complete inhibition of [Ca^2+I] release ([1]; TM2-derived peptides, Table 3): 10 µM

Molecule: LLFVITLPFWAVDAVANWYFGN (F-2-1 GPCR CXCR4) [Peptide F-2-1]
- Concentration, required for complete inhibition of [Ca^2+I] release ([1]; TM2-derived peptides, Table 3): 5 µM
- Decrease in antagonist potency relative to F-2-2 [1]: more than ten-fold

Molecule: LLFVITLPFWAVDAVANWYFGNKK (F-2-8 GPCR CXCR4) [Peptide F-2-8]
- Concentration, required for complete inhibition of [Ca^2+I] release ([1]; TM2-derived peptides, Table 3): 20 µM

Molecule: VITLPFWAVDAVANWYFGNKK (F-2-4 GPCR CXCR4) [Peptide F-2-4]
- Concentration, required for complete inhibition of [Ca^2+I] release ([1]; TM2-derived peptides, Table 3): >50 µM
- Decrease in antagonist potency relative to F-2-2 [1]: 20 fold

Molecule: HIMVGLILPGIVILSCYCIII-NH2 (cysteine pairing not given here) [F-5-1]
- Concentration, required for complete inhibition of [Ca^2+I] release (SDF-1α-induced) [2]: > 50 µM

Molecule: LSVADLLFVITLPFWAVDAVANDD [F-2-6]
- Concentration, required for complete inhibition of [Ca^2+I] release [3]: 20 µM

Molecule: Ac-LLFVITLPFWAVDAVANDD [AcF-2-5]
- Concentration, required for complete inhibition of [Ca^2+I] release [3]: 10 µM

Molecule: VYVGVWIPALLLTIPDFIFANDD [F-4-2]
- Concentration, required for inhibition of signal transduction (µM) (SDF-1α-induced intracellular calcium release) [4]: 5 µM
- EC50 in anti-HIV-1 assay (µM) (cytoprotection, CEM-SS cells infected with HIV-1RF) [4]: 0.3 µM

Molecule: LLFVITLPFWAVDAVANWYFGNDD [F-2-2]
- Concentration, required for inhibition of signal transduction (µM) (SDF-1α-induced intracellular calcium release) [4]: 0.2 µM
- EC50 in anti-HIV-1 assay (µM) (cytoprotection, CEM-SS cells infected with HIV-1RF) [4]: 2.27 µM
- Concentration, required for complete inhibition of [Ca^2+I] release [3]: 0.2 µM

Molecule: Ac-LLFVITLPFWAVDAVANWYFGNDDK(Rhod)D (reading uncertain) [Rhod - AcF-2-2]
- Concentration, required for complete inhibition of [Ca^2+I] release [3]: 8 µM

Molecule: VITLPFWAVDAVANWYFGNKK [F-2-4]
- Concentration, required for complete inhibition of [Ca^2+I] release [3]: > 50 µM

Molecule: KVYVGVWIPALLLTIPDFIF [F-4-1]
- Concentration, required for complete inhibition of [Ca^2+I] release (SDF-1α-induced) [2]: > 50 µM
